Assays:
[1] = target: T1, Tim-Tipin complex (mouse, UniProt Q9R1X4;Q91WA1 1-1134;1-278); assay: fluorescence anisotropy; Hill n = 1.2 ± 0.2; 30 C; 20 mM Hepes pH 7.5, 125 mM NaCl, 2 mM DTT, 0.01 mM zinc acetate (Buffer A); EMSA 15 min RT + 15 min 4 C; FA 15 min 30 C, 10 nM DNA; conditions: protein: recombinant; tags: His (Tim) and His-GST (Tipin), cleaved with 3C; copies: 1;1; label: 5'-FAM
T1 sequence 1: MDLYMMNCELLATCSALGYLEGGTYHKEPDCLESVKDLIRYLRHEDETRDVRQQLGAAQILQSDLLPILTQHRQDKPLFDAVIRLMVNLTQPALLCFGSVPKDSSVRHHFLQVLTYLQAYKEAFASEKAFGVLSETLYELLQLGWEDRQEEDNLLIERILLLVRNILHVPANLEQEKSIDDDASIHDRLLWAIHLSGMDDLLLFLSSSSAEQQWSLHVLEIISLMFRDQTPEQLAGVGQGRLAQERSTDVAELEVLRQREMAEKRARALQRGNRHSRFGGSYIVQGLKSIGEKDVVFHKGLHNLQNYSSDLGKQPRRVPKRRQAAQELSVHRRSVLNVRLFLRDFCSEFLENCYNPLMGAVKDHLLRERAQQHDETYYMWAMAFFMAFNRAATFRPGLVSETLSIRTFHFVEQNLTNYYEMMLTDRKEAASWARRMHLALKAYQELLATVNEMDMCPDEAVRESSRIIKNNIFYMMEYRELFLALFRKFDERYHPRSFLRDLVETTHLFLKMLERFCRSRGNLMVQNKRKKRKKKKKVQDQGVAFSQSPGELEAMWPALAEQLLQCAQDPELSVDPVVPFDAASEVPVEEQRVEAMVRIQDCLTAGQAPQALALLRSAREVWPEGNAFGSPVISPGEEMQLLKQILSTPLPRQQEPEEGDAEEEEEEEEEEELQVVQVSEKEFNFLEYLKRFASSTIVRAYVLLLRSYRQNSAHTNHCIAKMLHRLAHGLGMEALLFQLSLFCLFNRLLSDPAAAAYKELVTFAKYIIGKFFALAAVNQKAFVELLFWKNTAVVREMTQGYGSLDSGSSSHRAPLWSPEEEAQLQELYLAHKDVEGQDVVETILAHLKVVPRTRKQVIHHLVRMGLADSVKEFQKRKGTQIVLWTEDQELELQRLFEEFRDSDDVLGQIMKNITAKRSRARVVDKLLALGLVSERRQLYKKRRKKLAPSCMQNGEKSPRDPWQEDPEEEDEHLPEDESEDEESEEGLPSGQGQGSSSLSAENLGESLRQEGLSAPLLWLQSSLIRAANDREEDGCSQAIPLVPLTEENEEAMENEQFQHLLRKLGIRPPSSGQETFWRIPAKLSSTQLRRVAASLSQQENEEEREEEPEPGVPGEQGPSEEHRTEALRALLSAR
T1 sequence 2: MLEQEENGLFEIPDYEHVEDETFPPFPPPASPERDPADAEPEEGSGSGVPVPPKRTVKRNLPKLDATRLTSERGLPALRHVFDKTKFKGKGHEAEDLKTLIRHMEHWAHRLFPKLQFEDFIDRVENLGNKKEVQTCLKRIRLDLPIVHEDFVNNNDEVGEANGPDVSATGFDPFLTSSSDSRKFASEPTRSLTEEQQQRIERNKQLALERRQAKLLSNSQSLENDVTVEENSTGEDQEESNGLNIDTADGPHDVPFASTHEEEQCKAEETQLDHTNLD

[2] = target: RPA70/32/14 (RPA70ABC/32D-WH/14) (mouse, UniProt Q8VEE4;Q99KL9;Q9CQ71 190-623;43-270;1-121); assay: EMSA; 1 RPA with excess DNA, up to 2 RPA at substoichiometric DNA; 20 mM Hepes pH 7.5, 125 mM NaCl, 2 mM DTT, 0.01 mM zinc acetate (Buffer A); EMSA 15 min RT + 15 min 4 C; FA 15 min 30 C, 10 nM DNA; conditions: protein: recombinant; tags: His; copies: 1;1;1; label: 5'-FAM
Chain of RPA70/32/14 (RPA70ABC/32D-WH/14) (Q8VEE4 190-623, chain 1 of 3): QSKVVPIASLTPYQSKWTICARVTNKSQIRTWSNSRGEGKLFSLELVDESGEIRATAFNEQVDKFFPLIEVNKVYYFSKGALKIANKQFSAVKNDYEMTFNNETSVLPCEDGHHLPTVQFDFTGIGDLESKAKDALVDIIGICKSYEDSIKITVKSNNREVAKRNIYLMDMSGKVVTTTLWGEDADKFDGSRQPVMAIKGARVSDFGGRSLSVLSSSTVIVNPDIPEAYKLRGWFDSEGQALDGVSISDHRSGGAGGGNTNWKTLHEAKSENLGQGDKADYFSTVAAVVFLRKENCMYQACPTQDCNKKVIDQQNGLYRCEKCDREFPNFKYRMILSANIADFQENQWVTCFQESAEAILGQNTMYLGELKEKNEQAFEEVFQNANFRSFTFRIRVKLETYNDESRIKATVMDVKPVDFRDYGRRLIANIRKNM
Chain of RPA70/32/14 (RPA70ABC/32D-WH/14) (chain, as listed by the source, chain 2 of 3): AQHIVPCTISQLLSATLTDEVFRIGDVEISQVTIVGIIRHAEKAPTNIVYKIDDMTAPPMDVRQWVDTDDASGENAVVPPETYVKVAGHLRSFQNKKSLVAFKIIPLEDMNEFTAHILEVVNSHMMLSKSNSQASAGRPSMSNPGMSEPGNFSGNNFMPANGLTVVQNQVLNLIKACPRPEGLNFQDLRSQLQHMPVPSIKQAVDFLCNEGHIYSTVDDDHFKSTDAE
Chain of RPA70/32/14 (RPA70ABC/32D-WH/14) (Q9CQ71 whole entry, chain 3 of 3): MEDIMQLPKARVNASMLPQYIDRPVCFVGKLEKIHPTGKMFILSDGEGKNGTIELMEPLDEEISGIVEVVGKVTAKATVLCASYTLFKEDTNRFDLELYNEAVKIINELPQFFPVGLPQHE

B1: 30 nt FAM ssDNA (ssDNA)
DNA: ACGCTGCCGAATTCTACCAGTGCCTTGCTA
[1]
  Kd: 1700 ± 200 nM
[2]
  binding result: binds
